Earlier results, collected in article PMC3430373.

Biological target: S10:NusB complex (Escherichia coli) (UniProt C4ZUH6)
Test: NMR

NusG CTD (from UniProt P0AFG0)
Kd: 50 µM
